In patent US20250270287A1 (KEROS THERAPEUTICS, published 2025):

T1: GDF-11 (UniProt O95390 299-407)
T1 sequence (looked up): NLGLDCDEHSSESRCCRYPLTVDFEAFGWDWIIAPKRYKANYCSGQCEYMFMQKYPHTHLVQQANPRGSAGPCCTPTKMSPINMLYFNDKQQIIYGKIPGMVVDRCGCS

T2: BMP-9 (UniProt Q9UK05 320-429)
T2 sequence (looked up): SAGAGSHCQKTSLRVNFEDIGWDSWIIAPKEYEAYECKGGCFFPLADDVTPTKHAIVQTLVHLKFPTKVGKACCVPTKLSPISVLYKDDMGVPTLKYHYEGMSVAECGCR

T3: growth differentiation factor 8 (GDF-8) (UniProt O14793 267-375)
T3 construct: also called myostatin
T3 sequence (looked up): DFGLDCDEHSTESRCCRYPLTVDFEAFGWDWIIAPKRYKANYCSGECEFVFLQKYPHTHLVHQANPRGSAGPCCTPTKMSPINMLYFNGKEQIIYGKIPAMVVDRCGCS

T4: BMP-10 (UniProt O95393 317-424)
T4 sequence (looked up): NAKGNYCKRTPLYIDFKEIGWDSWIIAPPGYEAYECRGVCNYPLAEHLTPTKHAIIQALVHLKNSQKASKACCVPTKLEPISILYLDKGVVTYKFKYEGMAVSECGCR

T5: ActRIIB-A1 (SEQ ID NO: 120) chimera-Fc protein (Homo sapiens (Human), UniProt Q13705 28-134)
T5 construct: Tested as chimera-Fc protein; not shown: linker (if any) and Fc domain
T5 sequence: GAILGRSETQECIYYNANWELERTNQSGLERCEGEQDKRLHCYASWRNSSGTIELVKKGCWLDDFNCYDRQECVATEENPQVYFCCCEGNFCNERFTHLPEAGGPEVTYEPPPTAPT

B1: Activin A (ligand, UniProt P08476 311-426, looked up)
chain: GLECDGKVNICCKKQFFVSFKDIGWNDWIIAPSGYHANYCEGECPSHIAGTSGSSLSFHSTVINHYRMRGHSPFANLKSCCVPTKLRPMSMLYYDDGQNIIKKDIQNMIVEECGCS
B2: Activin B (ligand, UniProt P09529 293-407, looked up)
chain: GLECDGRTNLCCRQQFFIDFRLIGWNDWIIAPTGYYGNYCEGSCPAYLAGVPGSASSFHTAVVNQYRMRGLNPGTVNSCCIPTKLSTMSMLYFDDEYNIVKRDVPNMIVEECGCA

Columns and labels:
Activin A [1] = target: B1; experiment: cell-based or functional assay
Activin B [2] = target: B2; experiment: cell-based or functional assay
GDF-11 [3] = target: T1, GDF-11; experiment: cell-based or functional assay
BMP-9 [4] = target: T2, BMP-9; experiment: cell-based or functional assay
Activin A [5] = target: B1; experiment: SPR (Biacore 8K), Fc protein captured on anti-human IgG, ligand injected
Protocol: (§1) The Cytiva Biacore 8k was used to measure the kinetics of the interactions between the ActRII- and chimera-Fc proteins and Activin A/Activin B/growth differentiation factor 8 (GDF-8)/GDF-11/BMP-9/BMP-10. Series S CM4 Sensor Chips were immobilized with anti-human capture antibody using the reagents and protocol in the Biacore Human Antibody Capture Kit (GE Life Sciences). Briefly, anti-human IgG was diluted to 25 μg/mL in immobilization buffer. The carboxylated surface of the sensor was activated by injecting a mixture of EDC and NHS. The anti-human IgG was injected into the activated sensor chip flow cells at 10 μL/min for a total of 7 minutes until the chip reached an immobilization level of 3000 resonance units (RU). Ethanolamine was injected to deactivate the sensor surfaces. The chip has 8 flow cells to be used for binding analysis, each with an in-line reference surface to subtract instrument noise and non-specific binding to the sensor chip. The ActRII- and chimera-Fc proteins were captured in their own flow cell to allow for a maximum analyte binding response of 20-30 RU. This was done by injecting 10-20 μL of the ActRII- and chimera-Fc proteins into the flow cells at a concentration of 2 μg/mL until 60-90 RU was captured. Ligand at a single concentration was injected at […] for 60 seconds and then allowed to dissociate under buffer flow for no less than 5 minutes. After the cycle completed, captured protein was stripped from the chip with an injection of 3 M magnesium chloride, the regeneration buffer provided with the Biacore Human Antibody Capture Kit. Each ligand was injected in a concentration series, including a buffer only 0 nM concentration to serve as a double reference for subtracting out instrument noise. The data were analyzed using the Biacore Insight Evaluation Software.

Activin B [6] = target: B2; experiment: as above
Protocol: as §1

[7] = target: T3, growth differentiation factor 8 (GDF-8); experiment: as above
Protocol: as §1

GDF-11 [8] = target: T1, GDF-11; experiment: as above
Protocol: as §1

BMP-9 [9] = target: T2, BMP-9; experiment: as above
Protocol: as §1

BMP-10 = target: T4, BMP-10; experiment: as above
Protocol: as §1

[10] = target: T5, ActRIIB-A1 (SEQ ID NO: 120) chimera-Fc …; experiment: as above
Protocol: as §1

IC50, SBE-luciferase reporter in HEK293 cells (Activin A [1]) [µg/mL]	IC50, SBE-luciferase reporter in HEK293 cells (Activin B [2]) [µg/mL]	IC50, SBE-luciferase reporter in HEK293 cells (GDF-11 [3]) [µg/mL]	IC50, BRE-luciferase reporter in C2C12 cells (BMP-9 [4]) [µg/mL]	Kd (Activin A [5]) [nM]	Kd (Activin B [6]) [nM]	Kd [7] [nM]	Kd (GDF-11 [8]) [nM]	Kd (BMP-9 [9]) [nM]	Kd (BMP-10) [nM]	Kd [10] [nM]	Binder
0.63	0.24	0.19	12	0.0357	0.0755	0.0977	< 0.001	18	0.0289		ActRIIA-A3 (SEQ ID NO: 106) chimera-Fc protein (Fc fusion, Tested as chimera-Fc protein; not shown: linker (if any) and Fc domain) GAILGRSETQECLFFNANWEKDRTNQTGVEPCEGEQDKRRHCFATWKNISGSIEIVKQGCWLDDINCYDRTDCVEKKDSPEVYFCCCEGNMCNEKFSYFPEMEVTQPTS
0.14	0.071	0.13	> 50	0.0256	< 0.001	0.0248	< 0.001	13.6	0.0122		ActRIIA-B3 (SEQ ID NO: 97) chimera-Fc protein (Fc fusion, Tested as chimera-Fc protein; not shown: linker (if any) and Fc domain) GAILGRSETQECLFFNANWEKDRTNQTGVEPCYGDKDKRLHCYASWRNSSGSIEIVKQGCWLDDINCYDRTDCVEKKDSPEVYFCCCEGNMCNEKFSYFPEMEVTQPTS
1.4	0.25	0.39	> 50	0.0217	0.0249	0.0898	< 0.001	77.2	0.2		ActRIIA-B1B7 (SEQ ID NO: 101) chimera-Fc protein (Fc fusion, Tested as chimera-Fc protein; also called ActRIIA-B1β7; not shown: linker (if any) and Fc domain) GAILGRSETQECIYYNANWEKDRTNQTGVEPCYGDKDKRRHCFATWKNISGSIEIVKQGCWLDDINCYDRTDCVEKKDSPEVYFCCCEGNMCNERFTHLPEMEVTQPTS
0.3	0.073	0.23	4.2	0.048	0.0174	0.122	0.00665	2.55	0.126		ActRIIA-A5 (SEQ ID NO: 107) chimera-Fc protein (Fc fusion, Tested as chimera-Fc protein; not shown: linker (if any) and Fc domain) GAILGRSETQECLFFNANWEKDRTNQTGVEPCYGDKDKRRHCFATWKNISGSIEIVKQGCWLDDFNCYDRQECVEKKDSPEVYFCCCEGNMCNEKFSYFPEMEVTQPTS
0.33	0.1	0.077	8.8	0.032	0.0558	0.0682	< 0.001	49.7	0.347		ActRIIA-A6 (SEQ ID NO: 108) chimera-Fc protein (Fc fusion, Tested as chimera-Fc protein; not shown: linker (if any) and Fc domain) GAILGRSETQECLFFNANWEKDRTNQTGVEPCYGDKDKRRHCFATWKNISGSIEIVKQGCWLDDINCYDRTDCVEKEENPQVYFCCCEGNMCNEKFSYFPEMEVTQPTS
0.84	0.18	0.23	21	0.024	0.00889	0.0121	< 0.001	58.9	0.141		ActRIIA-B7 (SEQ ID NO: 100) chimera-Fc protein (Fc fusion, Tested as chimera-Fc protein; not shown: linker (if any) and Fc domain) GAILGRSETQECLFFNANWEKDRTNQTGVEPCYGDKDKRRHCFATWKNISGSIEIVKQGCWLDDINCYDRTDCVEKKDSPEVYFCCCEGNMCNERFTHLPEMEVTQPTS
0.7	0.16	0.29	> 50	0.016	< 0.001	0.0672	< 0.001	13.1	0.0605		ActRIIA-B2B4 (SEQ ID NO: 103) chimera-Fc protein (Fc fusion, Tested as chimera-Fc protein; not shown: linker (if any) and Fc domain) GAILGRSETQECLEFNANWEKDRTNQSGLERCYGDKDKRRHCFATWKNISGTIELVKKGCWLDDINCYDRTDCVEKKDSPEVYFCCCEGNMCNEKFSYFPEMEVTQPTS
0.75	0.13	0.26	> 50	0.024	0.00531	0.125	3.43	32.9	0.227		ActRIIA-B1B4 (SEQ ID NO: 102) chimera-Fc protein (Fc fusion, Tested as chimera-Fc protein; also called ActRIIA-B1β4; not shown: linker (if any) and Fc domain) GAILGRSETQECIYYNANWEKDRTNQTGVEPCYGDKDKRRHCFATWKNISGTIELVKKGCWLDDINCYDRTDCVEKKDSPEVYFCCCEGNMCNEKFSYFPEMEVTQPTS
0.32	0.094	0.22	> 50	0.0186	< 0.001	0.115	< 0.001	13.6	0.046		ActRIIA-B4 (SEQ ID NO: 98) chimera-Fc protein (Fc fusion, Tested as chimera-Fc protein; not shown: linker (if any) and Fc domain) GAILGRSETQECLFFNANWEKDRTNQTGVEPCYGDKDKRRHCFATWKNISGTIELVKKGCWLDDINCYDRTDCVEKKDSPEVYFCCCEGNMCNEKFSYFPEMEVTQPTS
0.075	0.1	0.18	1.9	0.04	< 0.001	0.229	< 0.001	8.1	0.0397		ActRIIA-A8 (SEQ ID NO: 110) chimera-Fc protein (Fc fusion, Tested as chimera-Fc protein; not shown: linker (if any) and Fc domain) GAILGRSETQECLFFNANWEKDRTNQTGVEPCYGDKDKRRHCFATWKNISGSIEIVKQGCWLDDINCYDRTDCVEKKDSPEVYFCCCEGNMCNEKFSYFPEAGGPEVTYEPPPTAPT
										0.0448	B1
										< 0.001	B2
